Results published in publication PMC7954794, “Protein context shapes the specificity of SH3 domain-mediated interactions in vivo” (Nature Communications, 2021).

What was measured:
[1] = system: SH3-deleted bait proteins (1xFLAG); assay: Western blot expression level of SH3-deleted baits (Fig. S1F-G); type: cell-based, Saccharomyces cerevisiae; details: Western blot Flag signal, 1xFLAG-tagged WT or SH3-deleted bait; sheet FigS1F-G
Method: Precultures of yeast cells expressing baits fused with the DHFR F[1,2]-FLAG were grown overnight at 30 °C with agitation in synthetic complete medium. The next day, cells were expanded in synthetic complete medium to reach their exponential phase (OD600 of around 1.0), pelleted, and frozen at −80 °C. The equivalent of fifty OD600 of cells was resuspended in ice-cold yeast lysis buffer (10 mM Tris-HCl pH 7.4, 150 mM NaCl, 0.5 mM EDTA (Millipore Sigma), 1% Triton X-100 (Millipore Sigma), and one cOmplete Mini Protease Inhibitor Cocktail (Millipore Sigma) per 10 mL) with […] glass beads (Millipore Sigma) and disrupted at 4 °C by 10 cycles of 2 min vortexing and 2 min cooldown. The equivalent of […] of lysed cells was used for the immunoprecipitation of the bait proteins using FLAG-M2 agarose beads (Millipore Sigma). The beads were incubated with the cell lysates for 120 min at 4 °C with a slow rotation, followed by three washes with the yeast lysis buffer.
Protein extracts and affinity-purified baits from yeast and human lysed cells were migrated on 10% polyacrylamide gels. The separated proteins were then transferred to nitrocellulose membranes. Validation of correct protein loading was done with ponceau staining of the membranes. Before the primary antibody incubations, membranes were blocked in 5% milk. Protein signals were detected on an Amersham Imager 600RGB (GE Healthcare) following the incubation of the membranes with the appropriate HRP-conjugated secondary antibodies and the Clarity Western ECL Substrate (Bio-Rad). The antibodies used in this study are M2-HRP (A8592, Sigma, 1/50,000), rabbit anti-FLAG (F7425, Sigma, 1/1000), PAK (SC-881, Santa Cruz, 1/200), p130cas/BCAR1 (SC-860, Santa Cruz, 1/200), actin (Cell Signaling Technology, 1/2000), anti-mouse HRP (Cell Signaling Technology, 1/10,000) and anti-rabbit HRP (Cell Signaling Technology, 1/10,000). The quantification of the WB signals was performed with the Amersham Imager 600 analysis software (GE Healthcare).

Sla1-GFP foci = assay: Live imaging of endocytosis, Sla1-GFP foci tracking (Fig. 4E-H, S5E-I); type: cell-based, Saccharomyces cerevisiae; details: for mean effective distance towards centroid: n 3286
Method: Overnight cultures of Sla1-GFP cells were diluted to an OD600 of 0.15 and grown in synthetic complete medium without tryptophan until they reached an OD600 of ~0.4–0.5 at 30 °C. The cells were then seeded on concanavalin A 0.05 mg/mL (Millipore Sigma) coated 8-well glass-bottom chamber slides (Sarstedt). Image acquisition was performed using a Perkin Elmer UltraVIEW confocal spinning disk unit attached to a Nikon Eclipse TE2000-U inverted microscope equipped with a Plan Apochromat DIC H 100×/1.4 oil objective (Nikon), and a Hamamatsu Orca Flash 4.0 LT + camera. Imaging was done at 25 °C in an environmental chamber. The software NIS-Elements (Nikon) was used for image capture. For each field, one brightfield and a series of fluorescence (GFP) images were taken. Cells were excited with a 488 nm laser and emission was filtered with a 530/630 nm filter. GFP time laps were acquired continuously at a rate of 1 frame/sec for 3 min.
Bright-field images were used to segment cells using YeastSpotter[60]. Cells were filtered based on circularity, solidity, and the normalized difference between minor and major axis lengths to remove poorly detected cells. Out-of-focus cells were also filtered out based on size and brightness. The centroids of the segmented cells were used to identify the locations of each cell in the image using Scikit-Image[61]. The location of each cell was used to isolate individual cell time-frames of fluorescence (GFP) images. Each cell time frame of the fluorescence images was processed through a python-based single-particle tracking tool—Trackpy[62]. Trackpy detected the locations of Sla1-GFP positive foci in each frame and linked them together to provide particle-wise trajectories. Trajectories detected in less than ten frames were considered spurious and were filtered out. Segments of the trajectories spuriously indicating movement of the particles back to the cell membrane were trimmed. The preprocessed trajectories of the particles were then used for the calculation of distances using the spatial distance module of “SciPy”[63]. The python-based code used for the analysis of microscopy images is included in the endocytosis module of “htsimaging” package.

[2] = Fig4H,S5G, SLA1 SH3-shuffled or -deleted strain

B1: Bzz1 WT (protein, UniProt P38822 1-633, looked up)
Protein BZZ1: MSADLSIGNEIKDSFKETHKWVQNNLKWLKDIEQFYRERAKLEKDYSERLSRLSAEYFNKKSSTSVPISVGDTPTTTPGSIEAAGVVAWNEILSQTDMISKDHDQLSTDFENHVANQLSGLFTKLDMTLSKINGFNNDMVNKKDNIYHELEKAKKDYDEACSTMEMARNRYTKASNDRNKKKLDEKEMEMNKCKNEYLIKINQANRTKDKYYFQDVPEVLDLLQDVNEAKTLFLNDLWLKAASVENDLGANVSKRLQAANSVVKQNKPSLNTAIFIKHNLKNWKEPQDFVYKPSPVWHDDEKFAVPSSLEVEDLRIKLAKAENDYNSLQDKTQNELSKLSTLNKIKHEMKTNEDNINATKFYDTLKEYLNVVSPFTSHETLKLQAEVQIESIQNNVPEEYDLSTDNIDLSKTKKKSGIFSKFKHNILNVDSKPSSGGSTGNGNGGPLHITSLFNTSRRTRLGSAPNNAGEDSDNNSIRTTSTNNTKKTTQNSSDDGKNKVLYAYVQKDDDEITITPGDKISLVARDTGSGWTKINNDTTGETGLVPTTYIRISSAATVKANDRGPAPEVPPPRRSTLPVRTMEAIYAYEAQGDDEISIDPGDIITVIRGDDGSGWTYGECDGLKGLFPTSYCK
For B1, the Flag [1] was 215050.

B2: Sla1 1|2|3: WT Sla1 (Sla1-GFP in imaging) (protein, UniProt P32790 1-1244, looked up)
Actin cytoskeleton-regulatory …: MTVFLGIYRAVYAYEPQTPEELAIQEDDLLYLLQKSDIDDWWTVKKRVIGSDSEEPVGLVPSTYIEEAPVLKKVRAIYDYEQVQNADEELTFHENDVFDVFDDKDADWLLVKSTVSNEFGFIPGNYVEPENGSTSKQEQAPAAAEAPAATPAAAPASAAVLPTNFLPPPQHNDRARMMQSKEDQAPDEDEEGPPPAMPARPTATTETTDATAAAVRSRTRLSYSDNDNDDEEDDYYYNSNSNNVGNHEYNTEYHSWNVTEIEGRKKKKAKLSIGNNKINFIPQKGTPHEWSIDKLVSYDNEKKHMFLEFVDPYRSLELHTGNTTTCEEIMNIIGEYKGASRDPGLREVEMASKSKKRGIVQYDFMAESQDELTIKSGDKVYILDDKKSKDWWMCQLVDSGKSGLVPAQFIEPVRDKKHTESTASGIIKSIKKNFTKSPSRSRSRSRSKSNANASWKDDELQNDVVGSAAGKRSRKSSLSSHKKNSSATKDFPNPKKSRLWVDRSGTFKVDAEFIGCAKGKIHLHKANGVKIAVAADKLSNEDLAYVEKITGFSLEKFKANDGSSSRGTDSRDSERERRRRLKEQEEKERDRRLKERELYELKKARELLDEERSRLQEKELPPIKPPRPTSTTSVPNTTSVPPAESSNNNNSSNKYDWFEFFLNCGVDVSNCQRYTINFDREQLTEDMMPDINNSMLRTLGLREGDIVRVMKHLDKKFGRENIASIPTNATGNMFSQPDGSLNVATSPETSLPQQLLPQTTSPAQTAPSTSAETDDAWTVKPASKSESNLLSKKSEFTGSMQDLLDLQPLEPKKAAASTPEPNLKDLEPVKTGGTTVPAAPVSSAPVSSAPAPLDPFKTGGNNILPLSTGFVMMPMITGGDMLPMQRTGGFVVPQTTFGMQSQVTGGILPVQKTGNGLIPISNTGGAMMPQTTFGAAATVLPLQKTGGGLIPIATTGGAQFPQTSFNVQGQQQLPTGSILPVQKTANGLISANTGVSMPTVQRTGGTMIPQTSFGVSQQLTGGAMMTQPQNTGSAMMPQTSFNAVPQITGGAMMPQTSFNALPQVTGGAMMPLQRTGGALNTFNTGGAMIPQTSFSSQAQNTGGFRPQSQFGLTLQKTGGIAPLNQNQFTGGAMNTLSTGGVLQQQQPQTMNTFNTGGVMQELQMMTTFNTGGAMQQPQMMNTFNTDGIMQQPQMMNTFNTGGAMQQPQQQALQNQPTGFGFGNGPQQSRQANIFNATASNPFGF
modifications: GFP tag in imaging
For B2, the complete (Sla1-GFP foci; [2]) was 23.1408, the incomplete (Sla1-GFP foci; [2]) was 3.31 and the “mean effective distance towards centroid” value (Sla1-GFP foci; time 0) was 0. The “mean effective distance towards centroid” value (Sla1-GFP foci; time 1) was 1.1628, the “mean effective distance towards centroid” value (Sla1-GFP foci; time 2) was 1.132 and the “mean effective distance towards centroid” value (Sla1-GFP foci; time 3) was 2.413. The “mean effective distance towards centroid” value (Sla1-GFP foci; time 4) was 3.293.

B3: Bem1 WT (protein, UniProt P29366 1-551, looked up)
Bud emergence protein 1: MLKNFKLSKRDSNGSKGRITSADISTPSHDNGSVIKHIKTVPVRYLSSSSTPVKSQRDSSPKNRHNSKDITSPEKVIKAKYSYQAQTSKELSFMEGEFFYVSGDEKDWYKASNPSTGKEGVVPKTYFEVFDRTKPSSVNGSNSSSRKVTNDSLNMGSLYAIVLYDFKAEKADELTTYVGENLFICAHHNCEWFIAKPIGRLGGPGLVPVGFVSIIDIATGYATGNDVIEDIKSVNLPTVQEWKSNIARYKASNISLGSVEQQQQQSITKPQNKSAKLVDGELLVKASVESFGLEDEKYWFLVCCELSNGKTRQLKRYYQDFYDLQVQLLDAFPAEAGKLRDAGGQWSKRIMPYIPGPVPYVTNSITKKRKEDLNIYVADLVNLPDYISRSEMVHSLFVVLNNGFDREFERDENQNNIKTLQENDTATFATASQTSNFASTNQDNTLTGEDLKLNKKLSDLSLSGSKQAPAQSTSGLKTTKIKFYYKDDIFALMLKGDTTYKELRSKIAPRIDTDNFKLQTKLFDGSGEEIKTDSQVSNIIQAKLKISVHDI
For B3, the Flag [1] was 104455.
